Molecular target: T1, PhiC31 integrase (Streptomyces phage PhiC31) (UniProt Q9T221)
T1 sequence: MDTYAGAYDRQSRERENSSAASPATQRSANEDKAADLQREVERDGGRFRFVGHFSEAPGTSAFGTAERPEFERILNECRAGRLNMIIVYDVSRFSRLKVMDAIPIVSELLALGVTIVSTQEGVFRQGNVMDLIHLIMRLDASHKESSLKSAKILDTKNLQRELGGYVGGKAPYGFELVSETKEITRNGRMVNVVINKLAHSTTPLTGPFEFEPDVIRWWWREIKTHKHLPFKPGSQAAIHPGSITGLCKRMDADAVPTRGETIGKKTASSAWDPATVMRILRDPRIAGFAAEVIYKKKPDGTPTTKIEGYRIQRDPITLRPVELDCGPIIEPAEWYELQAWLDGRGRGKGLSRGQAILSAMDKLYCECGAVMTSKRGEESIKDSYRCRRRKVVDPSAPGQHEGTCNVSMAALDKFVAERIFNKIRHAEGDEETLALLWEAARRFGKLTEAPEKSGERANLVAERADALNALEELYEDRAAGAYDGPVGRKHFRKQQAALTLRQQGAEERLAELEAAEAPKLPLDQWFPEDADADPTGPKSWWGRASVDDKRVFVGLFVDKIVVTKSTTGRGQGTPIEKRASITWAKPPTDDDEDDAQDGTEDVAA
Experiment: cell_activity
Details: S. pombe FY527attP, pLT45+pLT43; 63 without integrase, 120 with thiamine repression

## attB (pLT45, 500 bp fragment) ; attP 84 bp (pLT44)
  activity (transformants per 10^7 cells): 1100

From patent publication US20050054106
